Measurements taken from publication PMC12648486, “A LisH-domain protein interaction map reveals a Lis1-ARIH2-dynein regulatory axis” (iScience, 2025).

Biological target: T1, MBP-ARIH2 (UniProt O95376 1-493)
T1 construct: RBR-type E3 ubiquitin ligase ARIH2, cloned in this study into an MBP-tagged Gateway vector; source: E. coli BL21 (DE3), purified (Dextran-Sepharose, maltose elution)
T1 sequence (looked up): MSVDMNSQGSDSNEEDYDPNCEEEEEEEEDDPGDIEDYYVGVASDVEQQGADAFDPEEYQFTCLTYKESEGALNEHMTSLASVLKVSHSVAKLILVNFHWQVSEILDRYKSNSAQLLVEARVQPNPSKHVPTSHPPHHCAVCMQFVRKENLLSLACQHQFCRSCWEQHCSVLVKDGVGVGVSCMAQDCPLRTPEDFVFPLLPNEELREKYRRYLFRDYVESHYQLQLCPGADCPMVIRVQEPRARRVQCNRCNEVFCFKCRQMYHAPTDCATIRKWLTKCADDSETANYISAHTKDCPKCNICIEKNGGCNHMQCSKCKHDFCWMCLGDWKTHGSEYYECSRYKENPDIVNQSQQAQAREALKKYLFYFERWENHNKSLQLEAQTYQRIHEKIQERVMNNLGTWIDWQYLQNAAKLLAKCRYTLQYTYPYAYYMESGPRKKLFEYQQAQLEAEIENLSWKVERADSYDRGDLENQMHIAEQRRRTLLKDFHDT
Test: pull-down; bacterially purified recombinant GST-tagged protein incubated with purified MBP-ARIH2; eluates immunoblotted with MBP antibody
Settings: both partners purified

binding result: binds
B1: GST-Lis1 (natural protein, human, UniProt P43034 1-410, looked up)
chain: MVLSQRQRDELNRAIADYLRSNGYEEAYSVFKKEAELDVNEELDKKYAGLLEKKWTSVIRLQKKVMELESKLNEAKEEFTSGGPLGQKRDPKEWIPRPPEKYALSGHRSPVTRVIFHPVFSVMVSASEDATIKVWDYETGDFERTLKGHTDSVQDISFDHSGKLLASCSADMTIKLWDFQGFECIRTMHGHDHNVSSVAIMPNGDHIVSASRDKTIKMWEVQTGYCVKTFTGHREWVRMVRPNQDGTLIASCSNDQTVRVWVVATKECKAELREHEHVVECISWAPESSYSSISEATGSETKKSGKPGPFLLSGSRDKTIKMWDVSTGMCLMTLVGHDNWVRGVLFHSGGKFILSCADDKTLRVWDYKNKRCMKTLNAHEHFVTSLDFHKTAPYVVTGSVDQTVKVWECR
notes: Lis1 (PAFAH1B1), human, in a GST-tagged Gateway vector; source: E. coli BL21 (DE3), purified (Glutathione Sepharose)
